Test [1] addresses T1, bacterially produced human IL-6 (human, UniProt P05231 30-212).
T1 construct: also called bactIL-6; prokaryotic IL-6
Kind of test: SPR; purified Fab. (SPR reads the build-up and loss of mass on a sensor chip optically.)

In test [2] the target is T2, eukaryotically produced human IL-6 (human, UniProt P05231 30-212).
T2 construct: also called eukIL-6; Euk IL-6
Kind of test: SPR; purified Fab.

Test [3] deals with T3, cynomolgus monkey IL-6 (cynomolgus monkey, UniProt P79341 28-212, limits assumed).
T3 construct: also called HIS-cyIL-6
Description: SPR; purified Fab.

Test [4] has as its target T1, bacterially produced human IL-6. Kind of test: SPR; purified Fab; IL-6 coated on CM5 chip.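 Also: dissociation rate taken from the wash phase, association rate fitted over the injection phase with analyte concentration and dissociation rate as inputs.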
Description: (§1) From the washing phase the off-rate (kd) was determined, while from the injection phase the on-rate (ka) was calculated using the concentration and off-rate as parameters.
The target of test [5] is T2, eukaryotically produced human IL-6. Kind of test: SPR; purified Fab; IL-6 coated on CM5 chip.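 Also: dissociation rate taken from the wash phase, association rate fitted over the injection phase with analyte concentration and dissociation rate as inputs.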
Description: as §1
The target of test [6] is T1, bacterially produced human IL-6. Description: SPR; purified Fab over biotinylated IL-6 on streptavidin chip.
Description: as §1
For test [7] the target is unchanged. Description: SPR; periplasmic fraction.
For test [8], the target named is T2, eukaryotically produced human IL-6. Kind of test: SPR; periplasmic fraction.
The target of test [9] is T3, cynomolgus monkey IL-6. Description: SPR; periplasmic fraction.
In test [10] the target is T1, bacterially produced human IL-6. Kind of test: SPR; periplasmic fraction; against parental 29B11.
For test [11], the target named is T2, eukaryotically produced human IL-6. Description: SPR; periplasmic fraction; against parental 29B11.
The target of test [12] is T3, cynomolgus monkey IL-6. Kind of test: SPR; periplasmic fraction; against parental 29B11.
Test [13] concerns the target T4, human IL-6 (as added in the B9 and 7TD1 bioassays) (human, UniProt P05231 30-212). Kind of test: cell-based or functional assay.
In test [14] the target is T4, human IL-6 (as added in the B9 and 7TD1 …). Kind of test: cell-based or functional assay. This is another data set of the same source.

By Kd is commonly meant the constant that tells how readily two partners part at equilibrium. As usually defined, the koff is a measure of how fast the partners let go of each other. In general, kon refers to a measure of how fast the partners come together.

“And” between values parts separate entries of the source, which are not always exact repeats. Equal entries are not always repeated.

B1: Fab 18C7 (Fab, V domains shown)
VH: EVQLVESGPGLVKPSQTLSLTCTVSGGSITASFDAWSWIRQPPGKGLEWMGVIAYDGSTYYSPSLKSRTSISRDTSKNQFSLQLSSVTPEDTAVYYCARKSSWLIGYGMDYWGKGTLVTVSS
VL: QAGLTQPSALSVTLGQTAKITCQGGSLGSSYAHWYQQKPGQAPVLVIYDDDSRPSGIPERFSGSSSGGRATLTISGAQAEDEGDYYCQSADSSGNAAVFGGGTHLTVLG
notes: Fab; also called 18C7 (090-423)
Turning to B1, the Kd was 9100 pM in test [1]; 7700 pM and 5200 pM in test [2]; 5300 pM and 4900 pM with cynomolgus monkey IL-6 [3]; 9100 pM in test [4]; 7700 pM in [5]; 17500 pM in test [6]. Besides, the koff in test [1] was 0.0011 s⁻¹; in [2], 0.001 s⁻¹ and 0.00082 s⁻¹; with cynomolgus monkey IL-6 [3], 0.00063 s⁻¹ and 0.00069 s⁻¹; in [4] it was 0.0011 s⁻¹; in [5] it was 0.001 s⁻¹; in test [6], 0.00185 s⁻¹. The Ka in test [6] was determined as 5.7e+07 M⁻¹. Further, the kon in [6] was found to be 105000 M⁻¹ s⁻¹.

B2: Fab 55C1 (Fab, V domains shown)
VH: EVQLVESGGGLVQPGGSLRLSCAASGFTFSSYAMSWVRQAPGKGLEWVSRISSGGISTYYADSVKGRFTISRDNAKNTLYLQMNSLKPEDTAVYYCVRYAWGVQWAFDFWGQGTQVTVSS
VL: LNFMLTQPPSVSGSPGKTVTISCAGTSSDVGYGNYVSWYQQLPGTAPKLLIYNVNKRASGITDRFSGSKSGNTASLTISGLQSEDEADYYCASYRTGDNAAFGGGTKLTVLG
notes: VL-shuffled Fab of 29B11, periplasmic fraction; also called 55C1a
In test [7], B2 showed a Ka of 7.6e+09 M⁻¹, a Kd of 132 pM, a koff of 7.38e-05 s⁻¹ and an on-rate constant (kon) of 561000 M⁻¹ s⁻¹. Besides, in test [8], the Ka came to 5.55e+09 M⁻¹, the Kd was 180 pM, the koff came to 7.93e-05 s⁻¹ and the kon came to 440000 M⁻¹ s⁻¹. Further, in the test with cynomolgus monkey IL-6 [9], the Ka came to 1.25e+09 M⁻¹, binding was put at a Kd of 801 pM, the koff stood at 0.000381 s⁻¹ and the on-rate (kon) was 475000 M⁻¹ s⁻¹. Besides, in test [10], the “fold improvement KD” value amounted to 3.97 fold, the fold improvement ka came to 2.24 fold and the fold improvement kd is 1.78 fold. Besides, in test [11], the “fold improvement KD” value was found to be 3.03 fold, the fold improvement ka amounted to 2.35 fold and the fold improvement kd came to 1.29 fold. Besides, in the test with cynomolgus monkey IL-6 [12], the “fold improvement KD” value was 8.25 fold, the fold improvement ka was determined as 4.2 fold and the fold improvement kd is 1.96 fold.

B3: Fab 47C2 (Fab, V domains shown)
VH: EVQLVESGGGLVQPGGSLRLSCAASGFTFSSYAMSWVRQAPGKGLEWVSRISSGGISTYYADSVKGRFTISRDNAKNTLYLQMNSLKPEDTAVYYCVRYAWGVQWAFDFWGQGTQVTVSS
VL: LSYDLTQPPSVSGSPGKTVTISCAGTSSDVGYGNYVSWYQQLPGMAPKILIYDVNKRASGIADRFSGSKSGNTASLTISGLQSEDEADYYCASYRRGETIVFGGGTHLTVLG
notes: VL-shuffled Fab of 29B11, periplasmic fraction; also called 47C2 (R4)
In test [7], B3 had a Ka of 3.56e+09 M⁻¹, a Kd of 281 pM, a koff of 0.000315 s⁻¹ and a kon of 1.12e+06 M⁻¹ s⁻¹. In [8], this molecule yielded a Ka of 3.54e+09 M⁻¹, a Kd of 282 pM, a koff of 0.00024 s⁻¹ and a kon of 849000 M⁻¹ s⁻¹. In the test with cynomolgus monkey IL-6 [9], this molecule had a Ka of 6.48e+08 M⁻¹, a Kd of 1540 pM, a koff of 0.00131 s⁻¹ and a kon of 851000 M⁻¹ s⁻¹. In [10], the “fold improvement KD” value was 1.86 fold, the fold improvement ka is 4.46 fold and the fold improvement kd was 0.42 fold. Also, in test [11], the “fold improvement KD” value came out at 1.94 fold, the fold improvement ka was 4.54 fold and the fold improvement kd was determined as 0.43 fold. In the test with cynomolgus monkey IL-6 [12], the “fold improvement KD” value is 4.29 fold, the fold improvement ka worked out at 7.53 fold and the fold improvement kd came to 0.57 fold.

B4: Fab 55H1 (Fab, V domains shown)
VH: EVQLVESGGGLVQPGGSLRLSCAASGFTFSSYAMSWVRQAPGKGLEWVSRISSGGISTYYADSVKGRFTISRDNAKNTLYLQMNSLKPEDTAVYYCVRYAWGVQWAFDFWGQGTQVTVSS
VL: AQSVVTQPPSVSGSPGKTVTISCAGTSSDVGYGNYVSWYQQLPGMAPKLLIYDVSKRASGIADRFSGSKSGNTASLTISGLQSEDEADYVCASYRRGGTAVFGGGTHLTVLG
notes: VL-shuffled Fab of 29B11, periplasmic fraction; also called 55H1c
For the molecule B4, in test [7], the Ka is 1e+10 M⁻¹, binding was characterised by a dissociation constant (Kd) of 99.7 pM, the koff was 0.000127 s⁻¹ and the kon is 1.28e+06 M⁻¹ s⁻¹. In test [8], this molecule returned a Ka of 1.02e+10 M⁻¹, a Kd of 97.7 pM, a koff of 0.000111 s⁻¹ and a kon of 1.13e+06 M⁻¹ s⁻¹. In the test with cynomolgus monkey IL-6 [9], the Ka was 1.89e+09 M⁻¹, the Kd was determined as 529 pM, the koff was found to be 0.000615 s⁻¹ and the kon worked out at 1.16e+06 M⁻¹ s⁻¹. Further, in test [10], the “fold improvement KD” value turned out to be 5.26 fold, the fold improvement ka came out at 5.1 fold and the fold improvement kd stood at 1.03 fold. In test [11], the “fold improvement KD” value was found to be 5.59 fold, the fold improvement ka was 6.04 fold and the fold improvement kd was determined as 0.92 fold. Moreover, in the test with cynomolgus monkey IL-6 [12], the “fold improvement KD” value worked out at 12.5 fold, the fold improvement ka worked out at 10.3 fold and the fold improvement kd turned out to be 1.21 fold.

B5: Fab 55E2 (Fab, V domains shown)
VH: EVQLVESGGGLVQPGGSLRLSCAASGFTFSSYAMSWVRQAPGKGLEWVSRISSGGISTYYADSVKGRFTISRDNAKNTLYLQMNSLKPEDTAVYYCVRYAWGVQWAFDFWGQGTQVTVSS
VL: AQSVLTQPPSVSGSPGKTVTISCAGTSSDVGYGNYVSWYQQLPGMAPKLLIYDVNKRASGIADRFSGSKFANTASLTISGLQSEDEADYYCASYKRGDNAVFGGGTKLTVLG
notes: VL-shuffled Fab of 29B11, periplasmic fraction; also called 55E2b
Turning to B5, in test [7], the Ka was 7.28e+09 M⁻¹; the affinity, expressed as Kd, was 137 pM; the off-rate constant (koff) was found to be 6.72e-05 s⁻¹; the kon was 489000 M⁻¹ s⁻¹. In [8], this molecule returned a Ka of 6.34e+09 M⁻¹, a Kd of 158 pM, an off-rate constant (koff) of 6.53e-05 s⁻¹ and a kon of 414000 M⁻¹ s⁻¹. In the test with cynomolgus monkey IL-6 [9], this molecule registered a Ka of 1.39e+09 M⁻¹, a Kd of 717 pM, a koff of 0.000336 s⁻¹ and a kon of 468000 M⁻¹ s⁻¹. In addition, in test [10], the “fold improvement KD” value was 3.82 fold, the fold improvement ka is 1.95 fold and the fold improvement kd is 1.95 fold. In [11], the “fold improvement KD” value is 3.46 fold, the fold improvement ka was 2.21 fold and the fold improvement kd was 1.56 fold. Moreover, in the test with cynomolgus monkey IL-6 [12], the “fold improvement KD” value is 9.22 fold, the fold improvement ka amounted to 4.14 fold and the fold improvement kd is 2.22 fold.

B6: 133H2 (germlined variant of 68F2) (antibody, V domains shown)
VH: EVQLQESGPGLVKPSQTLSLTCTVSGGSITTRYYAWSWIRQPPGKGLEWIGVIDYDGDTYYSPSLKSRTTISWDTSKNQFSLKLSSVTPADTAVYYCARDPDVVTGFHYDYWGQGTTVTVSS
VL: QSALTQPPLVSGSPGQTVTISCAGANNDIGTYAYVSWYQQPPGTAPKLMIYKVTTRASGIPDRFSGSKSGNTASLTISGLQAEDEADYYCASYRNFNNAVFGSGTKLTVL
Turning to B6, in test [13], the “IC 50, B9 cell proliferation” value stood at 0.37 pM and the “Rel. potency, B9 cells” value stood at 2.2. In test [14], the “IC50, 7TD1 cells (batch A1.8)” value came out at 0.35 pM; the “IC50, 7TD1 cells (batch A9.11)” value came out at 0.47 pM; the “Potency relative to 68F2, 7TD1 cells (batch A1.8)” value is 1.94; the “Potency relative to 68F2, 7TD1 cells (batch A9.11)” value came out at 1.44.

B7: 133E5 (germlined variant of 68F2) (antibody, V domains shown)
VH: QVQLQESGPGLVKPSQTLSLTCTVSGGSITSRYYAWSWIRQPPGKGLEWIGVIDYDGDTYYSPSLKSRVTISWDTSKNQFSLKLSSVTPEDTAVYYCARDPDVVTGFHYDYWGQGTQVTVSS
VL: QSALTQPPSVSGSPGQTVTISCAGANNDIGTYAYVSWYQQLPGTAPKLMIYKVTTRASGIPDRFSGSKSGNTASLTISGLQAEDEADYYCASYRNFNNAVFGRGTKLTVL
As for B7, in test [13], the “IC 50, B9 cell proliferation” value is 0.19 pM and the “Rel. potency, B9 cells” value was determined as 4.3. In test [14], the “IC50, 7TD1 cells” value is 0.1 pM and the “Potency relative to 68F2, 7TD1 cells” value amounted to 6.69.

B8: Fab 20A4 (Fab, V domains shown)
VH: EVQLQESGPGLVKPSQTLSLTCTVSGGSITTRYYAWSWIRQPPGKGLEWMGVIDYDGDTYYSPSLKSRTSISWDTSKNQFSLQLSSVTPEDTAVYYCARDPDVVTGFHYDYWGQGTQVTVSS
VL: LNFMLTQPPSVSGTLGKTVTISCAGTSSDIGGYNYVSWYQQLPGTAPKLLIHRVSTRASGIPDRFSGSKSGNTASLTISGLRSEDEANYYCASYRNFNNAVFGGGTQLTVLG
notes: Fab
On to B8, for which the Kd in test [1] came to 2000 pM; in test [2], 810 pM; with cynomolgus monkey IL-6 [3], 1700 pM; in test [4] it was 2000 pM; in test [5], 810 pM; in test [6], 5820 pM. For the same molecule, the koff in test [1] was found to be 0.00062 s⁻¹; in [2] it was 0.0003 s⁻¹; in the test with cynomolgus monkey IL-6 [3], 0.00075 s⁻¹; in test [4], 0.00062 s⁻¹; in test [5] it was 0.0003 s⁻¹; in test [6], 0.00168 s⁻¹. In [6], this molecule gave a Ka of 1.72e+08 M⁻¹. Besides, in [6], the kon turned out to be 288000 M⁻¹ s⁻¹.
